{"source": "paper PMC3343374", "key": {"[1]": {"molecular_target": "DyLight405-labeled, EndoH-digested GluA2S amino-terminal domain", "assay": "fluorescence polarisation"}, "[2]": {"molecular_target": "GluA2S amino-terminal domain expressed in GnTI- cells and digested with EndoH", "assay": "dynamic light scattering"}, "[3]": {"molecular_target": "GluA2S amino-terminal domain expressed in GnTI- cells and digested with EndoH", "assay": "AUC"}, "[4]": {"molecular_target": "GluA2S amino-terminal domain expressed in GnTI- cells and digested with EndoH", "assay": "AUC", "remark": "listed apart in the source"}, "[5]": {"molecular_target": "GluA2S amino-terminal domain expressed in GnTI- cells and digested with EndoH", "assay": "AUC", "remark": "listed apart in the source"}, "[6]": {"molecular_target": "GluA2S amino-terminal domain expressed in GnTI- cells and digested with EndoH", "assay": "AUC", "remark": "listed apart in the source"}, "[7]": {"molecular_target": "GluA2S amino-terminal domain expressed in GnTI- cells and digested with EndoH", "assay": "SEC-MALS"}, "[8]": {"molecular_target": "GluA2S amino-terminal domain expressed in GnTI- cells and digested with EndoH", "assay": "AUC", "remark": "listed apart in the source"}, "[9]": {"molecular_target": "GluA2S amino-terminal domain expressed in GnTI- cells and digested with EndoH", "assay": "AUC", "remark": "listed apart in the source"}, "[10]": {"molecular_target": "DyLight405-labeled, EndoH-digested GluA2S amino-terminal domain", "assay": "fluorescence polarisation", "remark": "listed apart in the source"}, "[11]": {"molecular_target": "GluA2S amino-terminal domain expressed in HEK293T cells (complex glycosylation)", "assay": "dynamic light scattering"}, "[12]": {"molecular_target": "GluA2S amino-terminal domain expressed in HEK293T cells (complex glycosylation)", "assay": "AUC"}, "[13]": {"molecular_target": "GluA2S amino-terminal domain expressed in HEK293T cells (complex glycosylation)", "assay": "SEC-MALS"}, "[14]": {"molecular_target": "GluA2S amino-terminal domain expressed in HEK293T cells (complex glycosylation)", "assay": "AUC", "remark": "listed apart in the source"}, "[15]": {"molecular_target": "FAM-labeled, EndoH-digested GluA2S amino-terminal domain", "assay": "AUC"}, "[16]": {"molecular_target": "FAM-labeled, EndoH-digested GluA2S amino-terminal domain", "assay": "AUC", "remark": "listed apart in the source"}, "[17]": {"molecular_target": "FAM-labeled, EndoH-digested GluA2S amino-terminal domain", "assay": "AUC", "remark": "listed apart in the source"}, "[18]": {"molecular_target": "GluA3 amino-terminal domain expressed in HEK293T cells (UniProt P19492)", "assay": "AUC"}, "[19]": {"molecular_target": "GluA3 amino-terminal domain expressed in HEK293T cells (UniProt P19492)", "assay": "AUC", "remark": "listed apart in the source"}, "[20]": {"molecular_target": "GluA2S amino-terminal domain expressed in HEK293S GnTI- cells (high mannose glycans)", "assay": "AUC"}, "[21]": {"molecular_target": "GluA2S amino-terminal domain expressed in HEK293S GnTI- cells (high mannose glycans)", "assay": "SEC-MALS"}}, "note": "Where “and” joins values, the source holds several entries; their conditions need not be identical. Identical values can stand only once. Like-named read-outs stand apart in the source and are kept apart here."}
{"substance": "GluA2S amino-terminal domain expressed in GnTI- cells and digested with EndoH (domain or fragment)", "values": [{"measurement": "Kd", "setting": "[1]", "value": "0.0108 µM and 0.0113 µM and 0.00843 µM"}, {"measurement": "stoichiometry N", "setting": "[2]", "value": 2}, {"measurement": "Kd", "setting": "[3]", "value": 0.57, "unit": "µM"}, {"measurement": "Kd", "setting": "[4]", "value": 0.017, "unit": "µM"}, {"measurement": "Kd", "setting": "[5]", "value": 0.03, "unit": "µM"}, {"measurement": "Kd", "setting": "[6]", "value": "0.0056 µM and 0.0083 µM and 0.0097 µM"}, {"measurement": "stoichiometry N", "setting": "[7]", "value": 2}, {"measurement": "Kd", "setting": "[8]", "value": "0.16 µM and 0.284 µM"}, {"measurement": "Kd", "setting": "[9]", "value": "> 2500", "unit": "µM"}, {"measurement": "Kd", "setting": "[10]", "value": 0.0097, "unit": "µM"}]}
{"substance": "GluA2S amino-terminal domain expressed in HEK293T cells (complex glycosylation) (domain or fragment)", "values": [{"measurement": "stoichiometry N", "setting": "[11]", "value": 2}, {"measurement": "Kd", "setting": "[12]", "value": 0.0083, "unit": "µM"}, {"measurement": "stoichiometry N", "setting": "[13]", "value": 2}, {"measurement": "Kd", "setting": "[14]", "value": 0.006, "unit": "µM"}]}
{"substance": "FAM-labeled, EndoH-digested GluA2S amino-terminal domain (domain or fragment)", "values": [{"measurement": "Kd", "setting": "[15]", "value": 0.026, "unit": "µM"}, {"measurement": "Kd", "setting": "[16]", "value": 0.0149, "unit": "µM"}, {"measurement": "Kd", "setting": "[17]", "value": 0.0053, "unit": "µM"}]}
{"substance": "GluA3 amino-terminal domain expressed in HEK293T cells (from UniProt P19492 23-888) (domain or fragment)", "values": [{"measurement": "Kd", "setting": "[18]", "value": 3.1, "unit": "µM"}, {"measurement": "Kd", "setting": "[19]", "value": "> 162", "unit": "µM"}]}
{"substance": "GluA2S amino-terminal domain expressed in HEK293S GnTI- cells (high mannose glycans) (domain or fragment)", "values": [{"measurement": "Kd", "setting": "[20]", "value": 0.011, "unit": "µM"}, {"measurement": "stoichiometry N", "setting": "[21]", "value": 2}]}
